The record followed here is patent US8383350.

Experiment [1] addresses humanized 12G8 anti-IL-10 antibody. Kind of experiment: sandwich ELISA: capture 13G4 2.0 ug/mL, humanized 12G8 100 ng/mL, detection biotinylated 11F12 2.0 ug/mL.
The target is the same in experiment [2]. Kind of experiment: sandwich ELISA: capture 13G4 2.0 ug/mL, humanized 12G8 100 ng/mL, detection biotinylated 11F12 1.0 ug/mL. (In general: An ELISA detects its analyte on a solid surface through an enzyme-linked reagent.)
For experiment [3] the target is unchanged. As to the kind of experiment: sandwich ELISA: capture 13G4 0.5 ug/mL, humanized 12G8 100 ng/mL, detection biotinylated 11F12 0.5 ug/mL.
For experiment [4] the target is unchanged. As to the kind of experiment: blocking ELISA: purified antibody titrated against biotinylated humanized 12G8, binding to coated human IL-10 read.
For experiment [5] the target is unchanged. Kind of experiment: sandwich ELISA: capture 13G4 0.5 ug/mL, humanized 12G8 100 ng/mL, detection biotinylated 11F12 1.0 ug/mL.
For experiment [6] the target is unchanged. Kind of experiment: sandwich ELISA: capture 13G4 1.0 ug/mL, humanized 12G8 100 ng/mL, detection biotinylated 11F12 2.0 ug/mL.
Experiment [7] has the same target. Kind of experiment: sandwich ELISA: capture 13G4 2.0 ug/mL, humanized 12G8 100 ng/mL, detection biotinylated 11F12 0.5 ug/mL.
For experiment [8] the target is unchanged. Kind of experiment: sandwich ELISA: capture 13G4 1.0 ug/mL, humanized 12G8 100 ng/mL, detection biotinylated 11F12 1.0 ug/mL.
The target is the same in experiment [9]. Kind of experiment: sandwich ELISA: capture 13G4 0.5 ug/mL, humanized 12G8 100 ng/mL, detection biotinylated 11F12 2.0 ug/mL.
The target is the same in experiment [10]. As to the kind of experiment: sandwich ELISA: capture 13G4 1.0 ug/mL, humanized 12G8 100 ng/mL, detection biotinylated 11F12 0.5 ug/mL.

B1: JL11.11F12.C4 (antibody, V domains shown)
VH: EVQVQQSGPELVKPGASMKISCKASGYSFTGYTMNWVKQSHGKTLEWIGLINPYNGGTTYNQKFKGKATLTVDKSSSTAYMELLSLTSEDSAVYYCARRGSGYAMDYWGQGTSVTVS
VL: QIVLTQSPAIMSASLGERVAMTCTASSSVSSHYLHWYQQKPGSSPKLWIYSTSNLASGVPARFSGSGSGTSYSLTISSMEAEDAATYYCHQYHRSPWTFGGGTKLEIKR
In the case of B1, the Signal:Noise Ratio in experiment [1] turned out to be 20; in [2], 7.5; in [3], 10; in experiment [5] it was 8; in [6], 25; in experiment [7], 22. In addition, the values for the Signal:Noise Ratio in experiment [8], in [9] and in experiment [10] were 40, 8 and 32, respectively. For the same molecule, in [4], the IC50 (commonly the concentration that gives 50% inhibition) worked out at 2 nM.

B2: JL11.13G4.B11 (antibody, V domains shown)
VH: EVKLVESGGGLVKPGGSLKLSCAASGFAFSSYDMSWVRQTPEKRLEWVASISSDGSYTYYPDTVKGRFTISRDNARNTLNLQMSSLRSEDTALYFCARQDGYYLDYWGQGTTLTVSS
VL: EIVLTQSPALMAASPGEKVTITCSVSSSISSSKLYWYQQKSETSPKPWIYGTSNLASGVPVRFSGSGSGTSYSLTISSMEAEDAATYYCQQWSSYPLTFGAGTKLELKR
Turning to B2, the IC50 in [4] amounted to 1 nM.
